The values that follow come from publication PMC2686680, “Chibby forms a homodimer through a heptad repeat of leucine residues in its C-terminal coiled-coil motif” (BMC Molecular Biology, 2009).

The labels stand for the following.
B1: Cby wild type fused to the N-terminal (RN) or C-terminal (RC) portion of synthetic Renilla luciferase (hRluc) [human] / itself (parent complex)
chain: MPFFGNTFSPKKTPPRKSASLSNLHSLDRSTREVELGLEYGSPTMNLAGQSLKFENGQWIAETGVSGGVDRREVQRLRRRNQQLEEENNLLRLKVDILLDMLSESTAESHLMEKELDELRISRKRK

Variants of B1 are the subject of the experiment. Nature of the experiment: split hRluc protein-fragment-assisted complementation assay; HEK293T cells; expression plasmids 400 ng each; triplicate, means ± SD; read off a plot.
On to MPFFGNTFSPKKTPPRKSASLSNLHSLDRSTREVELGLEYGSPTMNLAGQSLKFENGQWIAETGVSGGVDRREVQRARRRNQQLEEENNLLRLKVDILLDMLSESTAESHLMEKELDELRISRKRK, for which the response was around 3.2. As to MPFFGNTFSPKKTPPRKSASLSNLHSLDRSTREVELGLEYGSPTMNLAGQSLKFENGQWIAETGVSGGVDRREVQRLRRRNQQAEEENNLLRLKVDILLDMLSESTAESHLMEKELDELRISRKRK, the response was around 1.9. Then MPFFGNTFSPKKTPPRKSASLSNLHSLDRSTREVELGLEYGSPTMNLAGQSLKFENGQWIAETGVSGGVDRREVQRLRRRNQQLEEENNLLRLKVDIALDMLSESTAESHLMEKELDELRISRKRK, with around 5.4; and MPFFGNTFSPKKTPPRKSASLSNLHSLDRSTREVELGLEYGSPTMNLAGQSLKFENGQWIAETGVSGGVDRREVQRARRRNQQAEEENNLARLKVDIALDMLSESTAESHLMEKELDELRISRKRK, with around 0.5. Then MPFFGNTFSPKKTPPRKSASLSNLHSLDRSTREVELGLEYGSPTMNLAGQSLKFENGQWIAETGVSGGVDRREVQRARRRNQQAEEENNLLRLKVDILLDMLSESTAESHLMEKELDELRISRKRK, with around 0.18; and MPFFGNTFSPKKTPPRKSASLSNLHSLDRSTREVELGLEYGSPTMNLAGQSLKFENGQWIAETGVSGGVDRREVQRLRRRNQQLEEENNLARLKVDILLDMLSESTAESHLMEKELDELRISRKRK, with around 4. Then MPFFGNTFSPKKTPPRKSASLSNLHSLDRSTREVELGLEYGSPTMNLAGQSLKFENGQWIAETGVSGGVDRREVQRLRRRNQQAEEENNLLRLKVDIALDMLSESTAESHLMEKELDELRISRKRK, with around 0.28.

MPFFGNTFSPKKTPPRKSASLSNLHSLDRSTREVELGLEYGSPTMNLAGQSLKFENGQWIAETGVSGGVDRREVQRLRRRNQQLEEENNLARLKVDIALDMLSESTAESHLMEKELDELRISRKRK: the response was around 0.7. Then MPFFGNTFSPKKTPPRKSASLSNLHSLDRSTREVELGLEYGSPTMNLAGQSLKFENGQWIAETGVSGGVDRREVQRARRRNQQLEEENNLARLKVDILLDMLSESTAESHLMEKELDELRISRKRK, with around 0.55.
